From patent US20190271710A1 come the findings set out here.

Experiment [1] concerns the target p217+ tau peptides (endogenous human tau protein or tau fragments phosphorylated at T217 and/or T212) (human) (UniProt P10636). Nature of the experiment: Simoa sandwich ELISA, pT3 capture beads, pooled AD CSF diluted 1:2.
For experiment [2] the target is unchanged. Nature of the experiment: Simoa sandwich ELISA, pT3 capture beads, pooled AD CSF diluted 1:4. Background: In an ELISA, binding on a coated surface is turned into a signal by an enzyme label.
The target is the same in experiment [3]. Put plainly: Simoa sandwich ELISA, pT3 capture beads, pooled AD CSF diluted 1:8.
Experiment [4] has the same target. Nature of the experiment: Simoa sandwich ELISA, pT3 capture beads, pooled AD CSF diluted 1:16.
The target is the same in experiment [5]. Nature of the experiment: Simoa sandwich ELISA, pT3 capture beads, pooled AD CSF diluted 1:32.
For experiment [6] the target is unchanged. Nature of the experiment: Simoa sandwich ELISA, pT3 capture beads, pooled AD CSF diluted 1:64.

p217+ tau peptides (endogenous human tau protein or tau fragments phosphorylated at T217 and/or T212) (human), sequence (P10636 other isoform, or with tags, fused parts or gaps limits assumed): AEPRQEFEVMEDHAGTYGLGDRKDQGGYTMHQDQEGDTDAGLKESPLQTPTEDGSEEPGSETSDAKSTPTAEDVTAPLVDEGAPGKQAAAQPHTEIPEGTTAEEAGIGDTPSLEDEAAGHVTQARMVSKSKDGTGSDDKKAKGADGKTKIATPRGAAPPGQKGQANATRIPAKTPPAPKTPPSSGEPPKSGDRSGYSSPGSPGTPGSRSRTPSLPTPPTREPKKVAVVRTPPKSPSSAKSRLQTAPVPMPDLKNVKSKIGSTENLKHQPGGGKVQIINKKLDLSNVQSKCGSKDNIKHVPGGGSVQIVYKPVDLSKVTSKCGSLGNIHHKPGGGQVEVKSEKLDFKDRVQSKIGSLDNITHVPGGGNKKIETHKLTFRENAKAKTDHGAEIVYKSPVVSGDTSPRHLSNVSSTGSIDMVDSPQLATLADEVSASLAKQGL

In experiment [1], “Quanterix tau 2.0 assay detector (antibody)” displayed a S/N @ 1:2 dilution of 525 S/N. In addition, the S/N @ 1:4 dilution in experiment [2] is 262 S/N. For the same substance, the S/N @ 1:8 dilution in experiment [3] amounted to 147 S/N. The substance further showed a S/N @ 1:16 dilution in experiment [4] of 75 S/N. Also, the S/N @ 1:32 dilution in experiment [5] was 35 S/N. The S/N @ 1:64 dilution in experiment [6] stood at 19 S/N.
